Details in all cases: protein: recombinant; tags: N-terminal GST; blunt, G:G mismatch at position 6
Series [1] has as its target T1, Bicoid DBD-GST (Bcd) (UniProt P09081 83-170).
T1 sequence: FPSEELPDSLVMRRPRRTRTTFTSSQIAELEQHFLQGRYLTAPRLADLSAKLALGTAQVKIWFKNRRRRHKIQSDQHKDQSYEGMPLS
The series can be described thus: competitive fluorescence anisotropy (HiP-FA); mean of replicates 49.725, 45.8965; HiP-FA: 33 mM phosphate pH 7.0, 90 mM NaCl, 0.01% Tween 20, 0.1 mM DTT, 0.5% agarose; conventional titration and EMSA: 20 mM Tris-acetate pH 7.0, 50 nM (sic) NaCl, 0.01% Tween-20, 0.1 mM DTT. For orientation: Mobility shift assays separate free from complexed probe on a gel.

In series [2] the target is T1, Bicoid DBD-GST (Bcd). Kind of series: competitive fluorescence anisotropy (HiP-FA); mean of replicates 14.726, 13.4865; HiP-FA: 33 mM phosphate pH 7.0, 90 mM NaCl, 0.01% Tween 20, 0.1 mM DTT, 0.5% agarose; conventional titration and EMSA: 20 mM Tris-acetate pH 7.0, 50 nM (sic) NaCl, 0.01% Tween-20, 0.1 mM DTT.
Series [3] has as its target T1, Bicoid DBD-GST (Bcd). The series can be described thus: competitive fluorescence anisotropy (HiP-FA); mean of replicates 2.804, 2.596; HiP-FA: 33 mM phosphate pH 7.0, 90 mM NaCl, 0.01% Tween 20, 0.1 mM DTT, 0.5% agarose; conventional titration and EMSA: 20 mM Tris-acetate pH 7.0, 50 nM (sic) NaCl, 0.01% Tween-20, 0.1 mM DTT.
For series [4], the target named is T1, Bicoid DBD-GST (Bcd). Kind of series: competitive fluorescence anisotropy (HiP-FA); mean of replicates 12.922, 12.5195; HiP-FA: 33 mM phosphate pH 7.0, 90 mM NaCl, 0.01% Tween 20, 0.1 mM DTT, 0.5% agarose; conventional titration and EMSA: 20 mM Tris-acetate pH 7.0, 50 nM (sic) NaCl, 0.01% Tween-20, 0.1 mM DTT.
Series [5] addresses T1, Bicoid DBD-GST (Bcd). Kind of series: competitive fluorescence anisotropy (HiP-FA); mean of replicates 20.981, 21.8595; HiP-FA: 33 mM phosphate pH 7.0, 90 mM NaCl, 0.01% Tween 20, 0.1 mM DTT, 0.5% agarose; conventional titration and EMSA: 20 mM Tris-acetate pH 7.0, 50 nM (sic) NaCl, 0.01% Tween-20, 0.1 mM DTT.
Series [6] deals with T1, Bicoid DBD-GST (Bcd). The series can be described thus: competitive fluorescence anisotropy (HiP-FA); mean of replicates 29.656, 29.169; HiP-FA: 33 mM phosphate pH 7.0, 90 mM NaCl, 0.01% Tween 20, 0.1 mM DTT, 0.5% agarose; conventional titration and EMSA: 20 mM Tris-acetate pH 7.0, 50 nM (sic) NaCl, 0.01% Tween-20, 0.1 mM DTT.
For series [7], the target named is T1, Bicoid DBD-GST (Bcd). The series can be described thus: competitive fluorescence anisotropy (HiP-FA); mean of replicates 63.883, 64.716; HiP-FA: 33 mM phosphate pH 7.0, 90 mM NaCl, 0.01% Tween 20, 0.1 mM DTT, 0.5% agarose; conventional titration and EMSA: 20 mM Tris-acetate pH 7.0, 50 nM (sic) NaCl, 0.01% Tween-20, 0.1 mM DTT.
In series [8] the target is T1, Bicoid DBD-GST (Bcd). The series can be described thus: competitive fluorescence anisotropy (HiP-FA); mean of replicates 8.014, 7.5595; HiP-FA: 33 mM phosphate pH 7.0, 90 mM NaCl, 0.01% Tween 20, 0.1 mM DTT, 0.5% agarose; conventional titration and EMSA: 20 mM Tris-acetate pH 7.0, 50 nM (sic) NaCl, 0.01% Tween-20, 0.1 mM DTT.
Series [9] deals with T1, Bicoid DBD-GST (Bcd). Kind of series: competitive fluorescence anisotropy (HiP-FA); mean of replicates 143.671, 148.3805; HiP-FA: 33 mM phosphate pH 7.0, 90 mM NaCl, 0.01% Tween 20, 0.1 mM DTT, 0.5% agarose; conventional titration and EMSA: 20 mM Tris-acetate pH 7.0, 50 nM (sic) NaCl, 0.01% Tween-20, 0.1 mM DTT.
The target in series [10] is T1, Bicoid DBD-GST (Bcd). The series can be described thus: competitive fluorescence anisotropy (HiP-FA); mean of replicates 19.276, 18.3665; HiP-FA: 33 mM phosphate pH 7.0, 90 mM NaCl, 0.01% Tween 20, 0.1 mM DTT, 0.5% agarose; conventional titration and EMSA: 20 mM Tris-acetate pH 7.0, 50 nM (sic) NaCl, 0.01% Tween-20, 0.1 mM DTT.
The target in series [11] is T1, Bicoid DBD-GST (Bcd). Kind of series: competitive fluorescence anisotropy (HiP-FA); mean of replicates 92.598, 91.655; HiP-FA: 33 mM phosphate pH 7.0, 90 mM NaCl, 0.01% Tween 20, 0.1 mM DTT, 0.5% agarose; conventional titration and EMSA: 20 mM Tris-acetate pH 7.0, 50 nM (sic) NaCl, 0.01% Tween-20, 0.1 mM DTT.
For series [12], the target named is T1, Bicoid DBD-GST (Bcd). The series can be described thus: competitive fluorescence anisotropy (HiP-FA); mean of replicates 3.661, 3.6795; HiP-FA: 33 mM phosphate pH 7.0, 90 mM NaCl, 0.01% Tween 20, 0.1 mM DTT, 0.5% agarose; conventional titration and EMSA: 20 mM Tris-acetate pH 7.0, 50 nM (sic) NaCl, 0.01% Tween-20, 0.1 mM DTT.
Series [13] concerns the target T1, Bicoid DBD-GST (Bcd). Kind of series: competitive fluorescence anisotropy (HiP-FA); mean of replicates 8.833, 9.124; HiP-FA: 33 mM phosphate pH 7.0, 90 mM NaCl, 0.01% Tween 20, 0.1 mM DTT, 0.5% agarose; conventional titration and EMSA: 20 mM Tris-acetate pH 7.0, 50 nM (sic) NaCl, 0.01% Tween-20, 0.1 mM DTT.
For series [14], the target named is T1, Bicoid DBD-GST (Bcd). Kind of series: competitive fluorescence anisotropy (HiP-FA); mean of replicates 94.126, 94.115; HiP-FA: 33 mM phosphate pH 7.0, 90 mM NaCl, 0.01% Tween 20, 0.1 mM DTT, 0.5% agarose; conventional titration and EMSA: 20 mM Tris-acetate pH 7.0, 50 nM (sic) NaCl, 0.01% Tween-20, 0.1 mM DTT.
Series [15] has as its target T1, Bicoid DBD-GST (Bcd). The series can be described thus: competitive fluorescence anisotropy (HiP-FA); mean of replicates 133.924, 123.07; HiP-FA: 33 mM phosphate pH 7.0, 90 mM NaCl, 0.01% Tween 20, 0.1 mM DTT, 0.5% agarose; conventional titration and EMSA: 20 mM Tris-acetate pH 7.0, 50 nM (sic) NaCl, 0.01% Tween-20, 0.1 mM DTT.
Series [16] deals with T1, Bicoid DBD-GST (Bcd). The series can be described thus: competitive fluorescence anisotropy (HiP-FA); mean of replicates 13.103, 12.6865; HiP-FA: 33 mM phosphate pH 7.0, 90 mM NaCl, 0.01% Tween 20, 0.1 mM DTT, 0.5% agarose; conventional titration and EMSA: 20 mM Tris-acetate pH 7.0, 50 nM (sic) NaCl, 0.01% Tween-20, 0.1 mM DTT.
For series [17], the target named is T1, Bicoid DBD-GST (Bcd). The series can be described thus: competitive fluorescence anisotropy (HiP-FA); mean of replicates 28.134, 26.319; HiP-FA: 33 mM phosphate pH 7.0, 90 mM NaCl, 0.01% Tween 20, 0.1 mM DTT, 0.5% agarose; conventional titration and EMSA: 20 mM Tris-acetate pH 7.0, 50 nM (sic) NaCl, 0.01% Tween-20, 0.1 mM DTT.
Series [18] addresses T1, Bicoid DBD-GST (Bcd). Kind of series: competitive fluorescence anisotropy (HiP-FA); mean of replicates 49.501, 48.184; HiP-FA: 33 mM phosphate pH 7.0, 90 mM NaCl, 0.01% Tween 20, 0.1 mM DTT, 0.5% agarose; conventional titration and EMSA: 20 mM Tris-acetate pH 7.0, 50 nM (sic) NaCl, 0.01% Tween-20, 0.1 mM DTT.
Series [19] addresses T1, Bicoid DBD-GST (Bcd). The series can be described thus: competitive fluorescence anisotropy (HiP-FA); mean of replicates 45.665, 45.961; HiP-FA: 33 mM phosphate pH 7.0, 90 mM NaCl, 0.01% Tween 20, 0.1 mM DTT, 0.5% agarose; conventional titration and EMSA: 20 mM Tris-acetate pH 7.0, 50 nM (sic) NaCl, 0.01% Tween-20, 0.1 mM DTT.

B1: Bcd competitor 24 (C8A) (dsDNA)
DNA 1: TCGACGGTAATACCTA
DNA 2: TAGGTATTACGGTCGA
Take B1: the Kd in [1] stood at 47.8 nM.

B2: Bcd competitor 25 (C9G) (dsDNA)
DNA 1: TCGACGGTAATCGCTA
DNA 2: TAGCGATTACGGTCGA
For the molecule B2, the Kd in [2] was determined as 14.1 nM.

B3: Bcd competitor 1 (C1G) (dsDNA)
DNA 1: TCGAGGGTAATCCCTA
DNA 2: TAGGGATTACGCTCGA
As for B3, the Kd in series [3] came out at 2.7 nM.

B4: Bcd competitor 27 (C9A) (dsDNA)
DNA 1: TCGACGGTAATCACTA
DNA 2: TAGTGATTACGGTCGA
B4: the equilibrium dissociation constant (Kd) in series [4] stood at 12.7 nM.

B5: Bcd competitor 11 (T4G) (dsDNA)
DNA 1: TCGACGGGAATCCCTA
DNA 2: TAGGGATTCCGGTCGA
Take B5: the Kd in [5] amounted to 21.4 nM.

B6: Bcd competitor 15 (A5T) (dsDNA)
DNA 1: TCGACGGTTATCCCTA
DNA 2: TAGGGATAACGGTCGA
Take B6: the Kd in series [6] was found to be 29.4 nM.

B7: Bcd competitor 13 (A5C) (dsDNA)
DNA 1: TCGACGGTCATCCCTA
DNA 2: TAGGGATGACGGTCGA
Turning to B7, in series [7], the Kd stood at 64.3 nM.

B8: Bcd competitor 26 (C9T) (dsDNA)
DNA 1: TCGACGGTAATCTCTA
DNA 2: TAGAGATTACGGTCGA
Consider B8, for which the Kd in series [8] stood at 7.79 nM.

B9: Bcd competitor 16 (A6C) (dsDNA)
DNA 1: TCGACGGTACTCCCTA
DNA 2: TAGGGAGTACGGTCGA
As for B9, in [9], the Kd is 146 nM.

B10: Bcd competitor 20 (T7G) (dsDNA)
DNA 1: TCGACGGTAAGCCCTA
DNA 2: TAGGGCTTACGGTCGA
Regarding B10, the Kd in [10] amounted to 18.8 nM.

B11: Bcd competitor 22 (C8G) (dsDNA)
DNA 1: TCGACGGTAATGCCTA
DNA 2: TAGGCATTACGGTCGA
Take B11: the Kd in series [11] was found to be 92.1 nM.

B12: Bcd competitor 28 (C10G) (dsDNA)
DNA 1: TCGACGGTAATCCGTA
DNA 2: TACGGATTACGGTCGA
With B12, the Kd in series [12] was 3.67 nM.

B13: Bcd competitor 14 (A5G) (dsDNA)
DNA 1: TCGACGGTGATCCCTA
DNA 2: TAGGGATCACGGTCGA
Regarding B13, the equilibrium dissociation constant (Kd) in [13] came to 8.98 nM.

B14: Bcd competitor 19 (T7C) (dsDNA)
DNA 1: TCGACGGTAACCCCTA
DNA 2: TAGGGGTTACGGTCGA
In the case of B14, the Kd in series [14] came out at 94.1 nM.

B15: Bcd competitor 18 (A6T) (dsDNA)
DNA 1: TCGACGGTATTCCCTA
DNA 2: TAGGGAATACGGTCGA
Turning to B15, the Kd in [15] was 128 nM.

B16: Bcd competitor 12 (T4A) (dsDNA)
DNA 1: TCGACGGAAATCCCTA
DNA 2: TAGGGATTTCGGTCGA
For the molecule B16, in [16], the Kd was 12.9 nM.

B17: Bcd competitor 23 (C8T) (dsDNA)
DNA 1: TCGACGGTAATTCCTA
DNA 2: TAGGAATTACGGTCGA
With B17, the Kd in series [17] is 27.2 nM.

B18: Bcd competitor 21 (T7A) (dsDNA)
DNA 1: TCGACGGTAAACCCTA
DNA 2: TAGGGTTTACGGTCGA
B18: the Kd in [18] was 48.8 nM.

B19: Bcd competitor 17 (A6G) (dsDNA)
DNA 1: TCGACGGTAGTCCCTA
DNA 2: TAGGGACTACGGTCGA
For B19, the Kd in series [19] was determined as 45.8 nM.

By Kd is commonly meant the concentration at which binding is half-saturated.

These data come from paper PMC5913336, “True equilibrium measurement of transcription factor-DNA binding affinities using automated polarization microscopy”.
